Consider 2 molecules from article PMC3102665, “A Sir2-Like Protein Participates in Mycobacterial NHEJ” (PLoS ONE, 2011).

In assay [1] the target is T1, His-MsmLigD protein (M. smegmatis, UniProt A0R3R7 1-762).
T1 construct: Multifunctional DNA ligase LigD of Mycobacterium smegmatis; The vector pET28a with a BamHI insert would put the His tag at the N-terminus; source: E. coli BL21 (DE3), purified (Ni-NTA)
T1 sequence (looked up): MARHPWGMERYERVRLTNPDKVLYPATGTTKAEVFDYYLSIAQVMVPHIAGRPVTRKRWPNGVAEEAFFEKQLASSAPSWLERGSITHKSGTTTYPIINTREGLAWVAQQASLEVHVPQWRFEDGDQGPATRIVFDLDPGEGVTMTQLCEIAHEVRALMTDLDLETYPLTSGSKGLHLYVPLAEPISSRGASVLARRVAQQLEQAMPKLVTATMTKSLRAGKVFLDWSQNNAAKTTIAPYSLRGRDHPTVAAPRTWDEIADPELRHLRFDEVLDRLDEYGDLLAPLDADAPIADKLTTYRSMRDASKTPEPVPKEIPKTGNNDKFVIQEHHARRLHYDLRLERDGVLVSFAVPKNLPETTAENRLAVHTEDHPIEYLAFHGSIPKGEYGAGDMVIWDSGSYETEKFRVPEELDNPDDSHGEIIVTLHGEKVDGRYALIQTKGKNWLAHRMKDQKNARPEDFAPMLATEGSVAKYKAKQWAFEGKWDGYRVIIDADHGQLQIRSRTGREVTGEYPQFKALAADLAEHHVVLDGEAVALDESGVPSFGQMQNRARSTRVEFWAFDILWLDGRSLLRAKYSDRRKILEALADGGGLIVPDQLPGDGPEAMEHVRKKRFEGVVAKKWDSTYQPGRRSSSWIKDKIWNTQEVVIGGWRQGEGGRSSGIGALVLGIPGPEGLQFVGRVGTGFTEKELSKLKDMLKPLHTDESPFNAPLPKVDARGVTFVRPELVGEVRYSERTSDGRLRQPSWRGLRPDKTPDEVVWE
Description: pull-down; GST fusion held on glutathione-Sepharose 4B beads, incubated with purified His-tagged protein at 4°C for 8 h in 50 mM Tris-HCl pH 7.5, 200 mM NaCl, 10% glycerol; washes with 0.1% Nonidet P-40; Western blot with anti-His-tag antibody. As to conditions: both partners purified. In general terms: A western blot detects proteins with antibodies after separation by electrophoresis.

The target in assay [2] is T2, His-MtuLigD protein (M. tuberculosis, UniProt P9WNV3 1-759).
T2 construct: The vector pET28a with a BamHI insert would put the His tag at the N-terminus
Briefly: pull-down. As to conditions: both partners purified.

T2 sequence (P9WNV3 whole entry): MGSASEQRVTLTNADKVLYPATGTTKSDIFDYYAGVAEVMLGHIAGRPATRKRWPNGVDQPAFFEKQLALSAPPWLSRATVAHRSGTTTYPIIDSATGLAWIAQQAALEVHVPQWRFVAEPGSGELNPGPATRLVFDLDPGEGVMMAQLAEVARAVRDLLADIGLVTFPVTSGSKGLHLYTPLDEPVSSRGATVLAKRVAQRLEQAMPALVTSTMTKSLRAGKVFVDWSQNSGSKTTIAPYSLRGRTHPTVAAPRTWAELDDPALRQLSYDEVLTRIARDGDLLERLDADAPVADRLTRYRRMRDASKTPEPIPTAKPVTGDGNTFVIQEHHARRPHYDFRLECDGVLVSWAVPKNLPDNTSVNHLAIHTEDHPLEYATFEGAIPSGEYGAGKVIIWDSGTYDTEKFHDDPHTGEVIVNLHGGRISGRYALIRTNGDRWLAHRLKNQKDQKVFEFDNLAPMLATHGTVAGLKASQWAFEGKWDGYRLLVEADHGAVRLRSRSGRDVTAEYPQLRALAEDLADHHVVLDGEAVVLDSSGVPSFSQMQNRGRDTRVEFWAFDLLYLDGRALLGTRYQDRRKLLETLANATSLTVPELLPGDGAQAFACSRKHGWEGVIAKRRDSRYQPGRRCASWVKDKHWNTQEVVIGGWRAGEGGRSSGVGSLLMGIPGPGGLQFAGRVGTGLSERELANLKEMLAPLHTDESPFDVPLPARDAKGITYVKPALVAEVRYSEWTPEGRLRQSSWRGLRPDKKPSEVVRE

B1: GST-MsmSir2 fusion protein (enzyme, M. smegmatis, UniProt A0R2N3 1-240, looked up)
chain: MQVTVLSGAGISAESGVPTFRDAETGLWAQVDPYEISSTDGWQRNPEKVWAWYLWRHYMMARVAPNEAHRTVAAWEDHLDVRVVTQNIDDLHERAGSTNVYHLHGSLFEFRCDACGSAFEGNLPEMPEPVETIDPPVCPCSGLIRPSVVWFGEPLPDAAWNRSVLAVSSADVVIVVGTSSIVYPAAGLPEAALAAGKPVIEVNPERTPLSDSATVSLRETASEALPTLLQRLPELLNRSA
notes: Sir2 (NAD-dependent deacetylase MSMEG_5175) of Mycobacterium smegmatis; the vector pGEX-6P-1 would put GST at the N-terminus; also called MsmSir2-GST; source: E. coli BL21 (DE3), purified (glutathione-Sepharose 4B)
Consider B1, for which, in assay [1], the binding result is recorded as “binds”.

B2: GST-MtuSir2 fusion protein (enzyme)
chain: MRVAVLSGAGISAESGVPTFRDDKNGLWARFDPYELSSTQGWLRNPERVWGWYLWRHYLVANVEPNDGHRAIAAWQDHAEVSVITQNVDDLHERAGSGAVHHLHGSLFEFRCARCGVPYTDALPEMPEPAIEVEPPVCDCGGLIRPDIVWFGEPLPEEPWRSAVEATGSADVMVVVGTSAIVYPAAGLPDLALARGTAVIEVNPEPTPLSGSATISIRESASQALPGLLERLPALLK
notes: the vector pGEX-6P-1 would put GST at the N-terminus; also called MtuSir2-GST
For B2, in assay [2], the binding result was “binds”.
